Source: paper PMC4838878, “Super-complexes of adhesion GPCRs and neural guidance receptors” (Nature Communications, 2016)
Several values for one entry are separate records, joined by “and”; a condition that tells them apart may be missing. Equal entries are not always repeated.

B1: mouse FLRT2 LRR domain (FLRT2^LRR) (domain or fragment, UniProt Q8BLU0 35-362, looked up)
chain: ACPSVCRCDRNFVYCNERSLTSVPLGIPEGVTVLYLHNNQINNAGFPAELHNVQSVHTVYLYGNQLDEFPMNLPKNVRVLHLQENNIQTISRAALAQLLKLEELHLDDNSISTVGVEDGAFREAISLKLLFLSKNHLSSVPVGLPVDLQELRVDENRIAVISDMAFQNLTSLERLIVDGNLLTNKGIAEGTFSHLTKLKEFSIVRNSLSHPPPDLPGTHLIRLYLQDNQINHIPLTAFANLRKLERLDISNNQLRMLTQGVFDHLSNLKQLTARNNPWFCDCSIKWVTEWLKYIPSSLNVRGFMCQGPEQVRGMAVRELNMNLLSCPT
notes: FLRT2, mouse, residues 35-362 (leucine-rich repeat domain); pHLSec vector family; treated with endoglycosidase F1 before crystallisation
B3: mouse Latrophilin3 Lec+Olf (Lphn3^Lec–Olf) (domain or fragment, UniProt Q80TS3-3 92-463, looked up)
chain: PIPMAVVRRELSCESYPIELRCPGTDVIMIESANYGRTDDKICDSDPAQMENIRCYLPDAYKIMSQRCNNRTQCAVVAGPDVFPDPCPGTYKYLEVQYECVPYKVEQKVFLCPGLLKGVYQSEHLFESDHQSGAWCKDPLQASDKIYYMPWTPYRTDTLTEYSSKDDFIAGRPTTTYKLPHRVDGTGFVVYDGALFFNKERTRNIVKFDLRTRIKSGEAIIANANYHDTSPYRWGGKSDIDLAVDENGLWVIYATEQNNGKIVISQLNPYTLRIEGTWDTAYDKRSASNAFMICGILYVVKSVYEDDDNEATGNKIDYIYNTDQSKDSLVDVPFPNSYQYIAAVDYNPRDNLLYVWNNYHVVKYSLDFGPLD
notes: Latrophilin3 (Lphn3, ADGRL3), mouse, residues 92-463 (lectin and olfactomedin-like domains); pHLSec vector family; treated with endoglycosidase F1 before crystallisation; Two copies (Lphn3A, Lphn3B) stand in each 1:1:2 tetramer; also called Lphn3A^Lec–Olf; Lphn3B^Lec–Olf
B4: Lphn3^Lec–Olf DDD charge-reversal mutant (D397R, D398R and D399R) (domain or fragment, mouse, UniProt Q80TS3-3 92-463, looked up)
chain: PIPMAVVRRELSCESYPIELRCPGTDVIMIESANYGRTDDKICDSDPAQMENIRCYLPDAYKIMSQRCNNRTQCAVVAGPDVFPDPCPGTYKYLEVQYECVPYKVEQKVFLCPGLLKGVYQSEHLFESDHQSGAWCKDPLQASDKIYYMPWTPYRTDTLTEYSSKDDFIAGRPTTTYKLPHRVDGTGFVVYDGALFFNKERTRNIVKFDLRTRIKSGEAIIANANYHDTSPYRWGGKSDIDLAVDENGLWVIYATEQNNGKIVISQLNPYTLRIEGTWDTAYDKRSASNAFMICGILYVVKSVYERRRNEATGNKIDYIYNTDQSKDSLVDVPFPNSYQYIAAVDYNPRDNLLYVWNNYHVVKYSLDFGPLD
notes: Latrophilin3, mouse, residues 92-463 (Lec and Olf domains) with three substitutions in the DDD loop
B5: rat Unc5D ectodomain (Unc5D^ecto), biotinylated at a C-terminal Avitag (domain or fragment)
chain: not shown
modifications: biotin on the C-terminal Avitag (enzymatic)
notes: signal peptide in the construct; Unc5D, rat, residues 1-382 (all extracellular domains); The form held on the streptavidin-coated CM5 chip in SPR; not shown: Avitag, C-terminal, kept

Experiments:
[1] = molecular target: B5; assay: SPR; Unc5D^ecto biotinylated at a C-terminal Avitag and coupled to a streptavidin-coated CM5 chip; FLRT2^LRR or FLRT2^LRR+Lphn3^Lec–Olf (1:2 molar ratio) injected; equilibrium binding, 25 °C, PBS+0.005% polysorbate 20 pH 7.5; apparent Kd, 1:1 and 1:(1:1) models, called indicative only; details: both partners purified
[2] = molecular target: T1, Lphn3^Lec–Olf DDD mutant (D397N+D399T, artificial N-linked glycosylation site at position 397) (mouse, UniProt Q80TS3-3 92-463, D397N | D399T, artificial N-linked glycan at position 397); assay: native MS; purified proteins mixed (FLRT2^LRR:Unc5D:Lphn3^Lec–Olf 1:1:2), 10–15 μM, 0.2 M ammonium acetate pH 7.5; Q-ToF; tandem MS of the tetramer peak at 150 V collision energy; details: both partners purified
T1 construct: Latrophilin3, mouse, residues 92-463 (Lec and Olf domains) with two substitutions in the DDD loop
T1 sequence (looked up): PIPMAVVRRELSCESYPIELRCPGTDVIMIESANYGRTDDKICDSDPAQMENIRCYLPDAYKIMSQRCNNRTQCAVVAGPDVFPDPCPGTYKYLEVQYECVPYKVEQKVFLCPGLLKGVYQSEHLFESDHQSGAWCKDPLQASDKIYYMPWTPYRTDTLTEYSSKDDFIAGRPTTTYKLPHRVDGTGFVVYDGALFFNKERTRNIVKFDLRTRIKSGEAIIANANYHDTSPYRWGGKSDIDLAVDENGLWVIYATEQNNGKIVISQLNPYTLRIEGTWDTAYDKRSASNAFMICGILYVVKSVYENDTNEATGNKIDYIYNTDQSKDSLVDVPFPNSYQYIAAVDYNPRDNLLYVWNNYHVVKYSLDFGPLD

[3] = molecular target: B4; assay: as above; details: both partners purified
[4] = molecular target: T2, rat Unc5D ectodomain (Unc5D^ecto) (rat, UniProt F1LW30 31-382); assay: SEC-MALS; proteins mixed (Lphn3^Lec–Olf:FLRT:Unc5 2:1:1) and concentrated; Superdex 200 10/30, 10 mM Tris-HCl pH 7.5, 150 mM NaCl; details: both partners purified
T2 construct: signal peptide in the construct; Unc5D, rat, residues 1-382 (all extracellular domains); The form used in native MS and SEC-MALS

[5] = molecular target: B3; assay: crystal structure; Lphn3^Lec–Olf, FLRT2^LRR and Unc5D^Ig deglycosylated, mixed 1:1:1, SEC; crystals at 18 °C, 0.1 M sodium cacodylate pH 6.5; 6 Å (PDB 5ftu); details: both partners purified
[6] = molecular target: B1; assay: as above; details: both partners purified
[7] = molecular target: B1; assay: native MS; purified proteins mixed (FLRT2^LRR:Unc5D:Lphn3^Lec–Olf 1:1:2), 10–15 μM, 0.2 M ammonium acetate pH 7.5; Q-ToF; tandem MS of the tetramer peak at 150 V collision energy; details: both partners purified
[8] = molecular target: the molecule itself; assay: crystal structure; Lphn3^Lec–Olf, FLRT2^LRR and Unc5D^Ig deglycosylated, mixed 1:1:1, SEC; crystals at 18 °C, 0.1 M sodium cacodylate pH 6.5; 6 Å (PDB 5ftu)
[9] = molecular target: the molecule itself; assay: native MS; purified proteins mixed (FLRT2^LRR:Unc5D:Lphn3^Lec–Olf 1:1:2), 10–15 μM, 0.2 M ammonium acetate pH 7.5; Q-ToF; tandem MS of the tetramer peak at 150 V collision energy
[10] = molecular target: T3, FLRT2^LRR+Lphn3^Lec–Olf (mixed in a 1:2 molar ratio) (mouse, UniProt Q8BLU0 35-362; Q80TS3-3 92-463); assay: SPR; Unc5D^ecto biotinylated at a C-terminal Avitag and coupled to a streptavidin-coated CM5 chip; FLRT2^LRR or FLRT2^LRR+Lphn3^Lec–Olf (1:2 molar ratio) injected; equilibrium binding, 25 °C, PBS+0.005% polysorbate 20 pH 7.5; apparent Kd, 1:1 and 1:(1:1) models, called indicative only; details: both partners purified
T3 construct: FLRT2, mouse, residues 35-362 (leucine-rich repeat domain); as m2; Latrophilin3, mouse, residues 92-463 (Lec and Olf domains); as m1; Analyte mixture of the SPR experiment; by SEC-MALS the two proteins alone form a 1:1 complex; also called FLRT2^LRR+wild-type Lphn3^Lec–Olf
T3 sequence (looked up) 1: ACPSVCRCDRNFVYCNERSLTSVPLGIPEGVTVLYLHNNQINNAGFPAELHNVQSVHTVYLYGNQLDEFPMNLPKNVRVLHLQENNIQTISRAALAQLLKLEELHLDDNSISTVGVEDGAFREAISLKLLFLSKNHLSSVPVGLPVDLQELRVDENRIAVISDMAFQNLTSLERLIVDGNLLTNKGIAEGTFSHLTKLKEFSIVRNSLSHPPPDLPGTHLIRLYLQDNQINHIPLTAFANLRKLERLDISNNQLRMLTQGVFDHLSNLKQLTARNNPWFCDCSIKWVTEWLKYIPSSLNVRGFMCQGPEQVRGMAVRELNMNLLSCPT
T3 sequence (looked up) 2: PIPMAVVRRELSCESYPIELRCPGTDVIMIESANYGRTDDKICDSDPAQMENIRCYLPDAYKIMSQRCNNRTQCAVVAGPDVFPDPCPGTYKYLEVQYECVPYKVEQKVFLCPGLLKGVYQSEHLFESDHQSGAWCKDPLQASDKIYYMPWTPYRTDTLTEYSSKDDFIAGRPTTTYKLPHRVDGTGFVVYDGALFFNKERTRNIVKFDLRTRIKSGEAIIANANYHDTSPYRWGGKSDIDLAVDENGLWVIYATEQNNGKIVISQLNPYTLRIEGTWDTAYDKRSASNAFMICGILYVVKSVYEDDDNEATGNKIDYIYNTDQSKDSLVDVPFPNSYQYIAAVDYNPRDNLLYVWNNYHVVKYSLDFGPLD

[11] = molecular target: T4, FLRT2^LRR+Lphn3^Lec–Olf DDD mutant (mouse, UniProt Q8BLU0 35-362; Q80TS3-3 92-463, D397N | D399T, artificial N-linked glycan at position 397); assay: as above; details: both partners purified
T4 construct: FLRT2, mouse, residues 35-362 (leucine-rich repeat domain); as m2; Latrophilin3, mouse, residues 92-463 with D397N+D399T; as m9
T4 sequence (looked up) 1: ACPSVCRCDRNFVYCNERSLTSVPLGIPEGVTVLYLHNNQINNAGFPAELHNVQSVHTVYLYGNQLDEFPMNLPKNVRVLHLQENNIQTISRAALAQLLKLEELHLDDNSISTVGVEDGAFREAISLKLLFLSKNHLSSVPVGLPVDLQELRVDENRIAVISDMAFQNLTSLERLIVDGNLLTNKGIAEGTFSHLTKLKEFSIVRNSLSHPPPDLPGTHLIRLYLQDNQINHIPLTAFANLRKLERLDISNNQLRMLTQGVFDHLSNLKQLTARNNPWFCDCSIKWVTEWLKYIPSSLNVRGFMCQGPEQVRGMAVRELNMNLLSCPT
T4 sequence (looked up) 2: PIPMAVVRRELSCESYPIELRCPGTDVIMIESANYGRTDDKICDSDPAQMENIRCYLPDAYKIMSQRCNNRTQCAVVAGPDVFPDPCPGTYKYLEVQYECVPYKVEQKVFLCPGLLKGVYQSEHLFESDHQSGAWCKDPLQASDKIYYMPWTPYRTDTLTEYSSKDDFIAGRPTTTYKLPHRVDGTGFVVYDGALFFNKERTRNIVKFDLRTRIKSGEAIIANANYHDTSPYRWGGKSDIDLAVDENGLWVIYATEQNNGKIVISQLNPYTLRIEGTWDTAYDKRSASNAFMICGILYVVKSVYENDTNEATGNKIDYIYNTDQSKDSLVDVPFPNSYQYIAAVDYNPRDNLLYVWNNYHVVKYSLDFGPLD

[12] = molecular target: B1; assay: crystal structure; Lphn3^Lec–Olf, FLRT2^LRR and Unc5D^IgIgTsp deglycosylated, mixed 2:1:1; crystals at 18 °C; 3.4 Å (PDB 5ftt); details: both partners purified

T2 sequence (F1LW30 31-382): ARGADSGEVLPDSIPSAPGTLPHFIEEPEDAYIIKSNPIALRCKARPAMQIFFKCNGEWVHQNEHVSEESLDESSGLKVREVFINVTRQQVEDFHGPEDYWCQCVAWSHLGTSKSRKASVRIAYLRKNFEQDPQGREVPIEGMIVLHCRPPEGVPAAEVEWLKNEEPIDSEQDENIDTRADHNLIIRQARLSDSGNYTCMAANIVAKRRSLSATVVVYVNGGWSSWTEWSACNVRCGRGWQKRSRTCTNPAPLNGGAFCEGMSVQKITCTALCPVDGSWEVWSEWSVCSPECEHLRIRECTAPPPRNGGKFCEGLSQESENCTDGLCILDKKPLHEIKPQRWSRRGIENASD

B1
Kd [1]: 460 nM
binding result [2]: binds
binding result [3]: binds
stoichiometry N [4]: 1
binding result [5]: binds

B2: rat Unc5D Ig domain 1 (Unc5D^Ig) (domain or fragment)
chain: not shown
notes: signal peptide in the construct; Unc5D, rat, residues 1-161 (Ig domain 1); Treated with endoglycosidase F1 before crystallisation
binding result [6]: binds

B3
stoichiometry N [7]: 1 and 2
binding result [8]: binds

B4
binding result [9]: binds

B5
Kd [10]: 94 nM
binding result [11]: binds

B6: rat Unc5D two Ig and TSP1 domains (Unc5D^IgIgTSP) (domain or fragment)
chain: not shown
notes: signal peptide in the construct; Unc5D, rat, residues 1-307 (Ig1, Ig2 and TSP1 domains); Deglycosylated before crystallisation
binding result [12]: binds
